Reference: article PMC6497050
pKd: −log10 of the molar value. Like-named read-outs stand apart in the source and are kept apart here.

Experiments:
[1] = target: importin α7 (UniProt O60684); assay: fluorescence polarisation
[2] = target: importin α7 (UniProt O60684); assay: fluorescence polarisation; remark: listed apart in the source

pKd [1]: 4.52 | pKd [2]: 5.89
Substance: wild type LANS (Light Activated Nuclear Shuttle) (from UniProt O49003 404-546) (designed binder)
